Measured values from patent US20080318839A1.

Tests used:
Cf2-PBD-VP64 (human) = Cf2-PBD-VP64 (human) (UniProt P06401); assay: cell-based or functional assay
ER-VP64 (mouse) = ER-VP64 (mouse) (UniProt P19785); assay: cell-based or functional assay
ER-VP64 (mouse), sequence (P19785 282-599 G525R): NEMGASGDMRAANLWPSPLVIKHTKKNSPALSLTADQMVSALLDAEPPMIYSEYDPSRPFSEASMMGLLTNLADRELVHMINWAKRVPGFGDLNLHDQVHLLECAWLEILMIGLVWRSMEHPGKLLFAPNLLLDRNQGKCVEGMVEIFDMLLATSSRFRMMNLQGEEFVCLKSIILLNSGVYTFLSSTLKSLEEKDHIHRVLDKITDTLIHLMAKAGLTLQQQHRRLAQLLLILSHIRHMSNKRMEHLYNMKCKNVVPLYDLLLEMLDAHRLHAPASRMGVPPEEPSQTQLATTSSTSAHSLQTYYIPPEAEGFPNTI

C7-PBD-VP64, sequence (P06401 640-914): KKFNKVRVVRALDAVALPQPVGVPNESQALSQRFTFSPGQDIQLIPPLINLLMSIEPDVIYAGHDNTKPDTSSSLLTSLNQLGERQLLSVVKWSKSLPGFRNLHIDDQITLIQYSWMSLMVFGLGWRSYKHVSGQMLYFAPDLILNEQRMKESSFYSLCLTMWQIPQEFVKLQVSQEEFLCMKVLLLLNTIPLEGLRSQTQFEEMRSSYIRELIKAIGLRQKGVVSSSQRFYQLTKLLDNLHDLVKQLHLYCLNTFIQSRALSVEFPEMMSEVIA
Cf2-PBD-VP64 (human), sequence (P06401 640-914): as above

Substance	ligand-dependent change in transcription, C7-Cf2 TATA luciferase reporter (Cf2-PBD-VP64 (human)) [fold]	luciferase assay, erbB-2 promoter activity in HeLa cells, with Tamoxifen (ER-VP64 (mouse)) [fold]	tamoxifen-dependent activation of the erbB-2 promoter (luciferase) (ER-VP64 (mouse)) [fold]
C7-PBD-VP64 (from UniProt P06401 640-914)	2	–	–
E2C-ER (from UniProt P19785 282-599)	–	3	5.3
